Measurements reported in patent US20240392035A1 (DENALI THERAPEUTICS, published 2024).

B1: anti-HER2_DIV/DII_scFv_1 (bispecific antibody, human IgG1, kappa, L234A L235A)
heavy 1: EVQLVESGGGLVQPGGSLRLSCAASGFTFTDYTMDWVRQAPGKGLEWVADVNPNSGGSIYNQRFKGRFTLSVDRSKNTLYLQMNSLRAEDTAVYYCARNLGPSFYFDYWGQGTLVTVSSASTKGPSVFPLAPSSKSTSGGTAALGCLVKDYFPEPVTVSWNSGALTSGVHTFPAVLQSSGLYSLSSVVTVPSSSLGTQTYICNVNHKPSNTKVDKKVEPKSCDKTHTCPPCPAPEAAGGPSVFLFPPKPKDTLMISRTPEVTCVVVDVSHEDPEVKFNWYVDGVEVHNAKTKPREEQYNSTYRVVSVLTVLHQDWLNGKEYKCKVSNKALPAPIEKTISKAKGQPREPQVYTLPPSRDELTKNQVSLWCLVKGFYPSDIAVEWESYGTEWSNYKTTPPVLDSDGSFFLYSKLTVSKEEWQQGFVFSCSVMHEALHNHYTQKSLSLSPGK
heavy 2: not shown
light: not shown
B2: Bispecific Protein #9 (bispecific antibody, human IgG1, kappa, L234A L235A)
heavy 1: B1 heavy 1
heavy 2: not shown
light: not shown
B3: Bispecific Protein #2 (bispecific antibody, human IgG1, kappa, L234A L235A)
heavy 1: B1 heavy 1
heavy 2: not shown
light: not shown

Experiments:
human TfR on cells = human TfR on cells (human, UniProt P02786 1-760); test: cell-based or functional assay
[1] = molecular target: HER2 on HER2-overexpressing tumor cell lines (UniProt P04626 23-1255, limits assumed); test: cell-based or functional assay
[2] = molecular target: T1, recombinant human TfR apical domain (human, UniProt P02786 198-378); test: SPR (Biacore), protein captured on anti-human Fab chip, human TfR apical domain injected, 1:1 Langmuir fit
T1 construct: also called recombinant TfR apical domain; transferrin receptor protein 1
Method: Affinities of the bispecific proteins were measured by SPR using a Biacore T200 or a Biacore 8K. Biacore™ Series S CM5 sensor chips were immobilized with monoclonal mouse anti-human IgG (Fc) antibody for HER2 affinity measurements or mouse anti-human Fab for TfR affinity measurements (human antibody or Fab capture kit from GE Healthcare). Serial 3-fold dilutions of analyte (recombinant HER2 extracellular domain or recombinant TfR apical domain) were injected at a flow rate of […]. Each sample was analyzed using a 3-minute association and a 10-minute dissociation for HER2 extracellular domain binding and a 40-second association and a 3-minute dissociation for human TfR apical domain binding. After each injection, the chip was regenerated using 3 M MgCl₂ or 50 mM glycine at pH 2.0. Binding response was corrected by subtracting the RU from a flow cell capturing an irrelevant IgG at similar density. A 1:1 Languir model of simultaneous fitting of kon and koff was used for kinetics analysis. […] The two constructs are described below.

T1 sequence (P02786 198-378 limits assumed): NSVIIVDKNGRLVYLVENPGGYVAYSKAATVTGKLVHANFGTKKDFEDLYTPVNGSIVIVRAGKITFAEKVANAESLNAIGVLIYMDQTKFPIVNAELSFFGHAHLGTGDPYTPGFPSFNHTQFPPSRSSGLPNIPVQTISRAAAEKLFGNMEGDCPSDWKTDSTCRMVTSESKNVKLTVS

Binder | maximum growth inhibition, OE19 cells, WST-1 assay (human TfR on cells) [%] | maximum growth inhibition, OE19 cells, WST-1 assay [1] [%] | Kd [2] [nM]
B1 | ~80 | ~80 | –
B2 | – | – | 500
B3 | – | – | 480
